In patent US20130195875A1 one finds Maximal inhibition of ADM bioactivity (ADM-Bioassay) (%) and EC50 (read off the curve) data, which are given here for two substances.

One may read the EC50 (read off the curve) as the midpoint of the concentration-response curve.

The target in assay [1] is ADM (human or mouse, not stated for this row). The assay can be described thus: cell-based or functional assay.
Assay [2] concerns the target human recombinant adrenomedullin receptor (CRLR+RAMP3) (human).

Non specific mouse IgG (antibody): the Maximal inhibition of ADM bioactivity (ADM-Bioassay) (%) in assay [1] was found to be 0%.

Take “human adrenomedullin (hADM 1-52) (peptide)”: in assay [2], the EC50 (read off the curve) stood at 1 nM.
